In US20060148030A1, “Nuclear receptor err y 3” (FUJISAWA PHARMACEUTICAL CO., LTD, priority 2002, published 2006):

Target: T1, RARα (Homo sapiens, UniProt P10276)
T1 construct: expressed in transfected cells; host or cells: CV-1 (African green monkey kidney)
T1 sequence (P10276 1-462): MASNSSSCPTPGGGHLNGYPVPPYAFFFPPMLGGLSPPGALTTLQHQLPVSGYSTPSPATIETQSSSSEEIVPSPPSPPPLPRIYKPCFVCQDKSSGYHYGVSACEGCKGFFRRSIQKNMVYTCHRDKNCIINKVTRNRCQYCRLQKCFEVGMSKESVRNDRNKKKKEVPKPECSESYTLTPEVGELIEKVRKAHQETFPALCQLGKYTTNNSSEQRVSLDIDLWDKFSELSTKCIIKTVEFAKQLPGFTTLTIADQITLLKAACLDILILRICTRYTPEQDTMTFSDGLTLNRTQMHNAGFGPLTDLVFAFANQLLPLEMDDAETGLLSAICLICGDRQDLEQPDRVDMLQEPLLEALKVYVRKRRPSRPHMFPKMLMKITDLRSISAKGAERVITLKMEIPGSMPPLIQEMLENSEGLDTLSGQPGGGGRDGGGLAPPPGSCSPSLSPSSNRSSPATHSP
T1 sequence (P19793 1-462 partner): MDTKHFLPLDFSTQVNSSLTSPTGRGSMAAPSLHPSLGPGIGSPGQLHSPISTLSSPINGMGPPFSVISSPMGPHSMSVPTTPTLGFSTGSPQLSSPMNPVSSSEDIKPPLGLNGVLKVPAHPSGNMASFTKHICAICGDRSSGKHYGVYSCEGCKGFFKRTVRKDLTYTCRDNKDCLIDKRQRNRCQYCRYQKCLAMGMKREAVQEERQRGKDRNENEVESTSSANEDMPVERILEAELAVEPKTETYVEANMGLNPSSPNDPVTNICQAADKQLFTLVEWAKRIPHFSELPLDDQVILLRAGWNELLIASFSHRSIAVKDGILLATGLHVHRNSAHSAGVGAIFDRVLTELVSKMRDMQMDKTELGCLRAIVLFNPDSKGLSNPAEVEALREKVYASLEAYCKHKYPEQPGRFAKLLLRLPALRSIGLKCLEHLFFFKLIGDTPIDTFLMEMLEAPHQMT
Experiment: Reporter gene assay, ERRγ3 coexisted with RARα, pGVP2-RARE in CV-1 cells
Assay type: cell-based
Details: 5×10^−8 M retinoic acid, FIG. 22
Description: The reporter gene assay was used to evaluate the effect of ligand 4-hydroxytamoxifen and 5×10^−8 M of retinoic acid on the function of ERRγ3 in enhancing the transcriptional activation function of retinoic acid receptor (RAR) (FIG. 22). RAR is a nuclear receptor belonging to group B of subfamily 1.
CV-1 cells (a cell line derived from the kidney of African green monkey) were used as hosts in the reporter gene assay. The luciferase reporter plasmid pGVP2-RARE and the expression plasmids for ERRγ3 and RARα: pcDNA3.1-ERRγ3 and pcDNA3.1-RARα, respectively, or alternatively the expression plasmid for both nuclear receptors, were transfected into the host cells. […]
Transfection was performed as follows: CV-1 cells were resuspended in DMEM supplemented with 10% fetal bovine serum, 2000 U/l of penicillin G, and 100 mg/l of streptomycin to a concentration of 2×10^5 cells/2.5 ml. […] 1 μg of each of the expression plasmids for the transcription factors, the luciferase reporter plasmid, and another luciferase reporter plasmid used for normalization of the measured values (pRL-TK), were dissolved in Opti-MEM (Gibco BRL), to a total of 150 μl. […] Luciferase activity was measured using the Dual-Luciferase™ Reporter Assay System (Promega). […] The protocol for measurement was as follows: 50 μl of Luciferase Assay Reagent II was added to each well, stirred for 0.3 seconds, and measured for one second. […]

B1: ERRγ3: novel ERRγ isoform, nuclear receptor protein of 396 amino acids (SEQ ID NO: 2) lacking part of the DNA binding domain (protein, listed as Homo sapiens)
chain: MSNKDRHIDSSCSSFIKTEPSSPASLTDSVNHHSPGGSSDASGSYSSTMNGHQNGLDSPPLYPSAPILGGSGPVRKLYDDCSSTIVEDPQTKCEYMLNSMPKRLCLVCGDIASGYHYGVASCEACKAFFKRTIQGVRLDRVRGGRQKYKRRIDAENSPYLNPQLAQPAKKPYNKIVSHLLVAEPEKIYAMPDPTVPDSDIKALTTLCDLADRELVVIIGWAKHIPGFSTLSLADQMSLLQSAWMEILILGVVYRSLSFEDELVYADDYIMDEDQSKLAGLLDLNNAILQLVKKYKSMKLEKEEFVTLKAIALANSDSMHIEDVEAVQKLQDVLHEALQDYEAGQHMEDPRRAGKMLMTLPLLRQTSTKAVQHFYNIKLEGKVPMHKLFLEMLEAKV
For B1, the “modifying effect on the transcriptional stimulation activity of RAR” value was “did not show a significant modifying effect”.
